Key:
[1] = biological target: T1, Biotinylated PD-1-huIgG1 Fc (Kactus Biosystems) (UniProt Q15116 25-167, limits assumed, biotinylated (site not given)); assay: neutralisation ELISA: PD-L1-huIgG1 Fc coated, antibody titrated against biotinylated PD-1-huIgG1 Fc
T1 construct: the whole entry is named

[2] = biological target: T2, PD-1 Protein, Human, Recombinant (His Tag) (Beijing Yiqiao Shenzhou / Sino Biological) (human, UniProt Q15116 25-167); assay: binding ELISA: human PD-1 His tag protein coated at 0.5 ug/ml, antibody in two-fold dilutions from 10 ug/ml
T2 construct: Bought reagent; the whole entry is named
T2 sequence (Q15116 25-167 limits assumed): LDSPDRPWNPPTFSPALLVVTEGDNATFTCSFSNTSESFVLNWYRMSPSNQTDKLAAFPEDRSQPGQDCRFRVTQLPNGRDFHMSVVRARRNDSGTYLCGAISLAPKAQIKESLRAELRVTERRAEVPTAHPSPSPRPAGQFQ

T1 sequence (Q15116 25-167 limits assumed): as above

B1: 6H6 hIgG1 form antibody (antibody, V domains shown)
VH: EVKLVESGGGLVKPGGSLKLSCAASGFTFSSYGMSWVRQTPEKRLEWVATISGGGRYTYYPDSVKGRFTISRDNAKNNLYLQMSSLRSEDTALYYCASIYDGYYFDYWGHGTTLTVSS
VL: DIVITQSPATLSVTPGDSVSLSCRASQSISNNLHWYQKKSHESPRLLIKYASQSISGIPSRFSGSGSGTDFTLSINSVETEDFGMYFCQQSNSWPLTFGAGTKLELK
notes: also called 6H6 antibody; 6H6 huIgG1 antibody
[1]
  IC50: 3.6 µg/mL
[2]
  EC50: 0.0172 µg/mL
